For test [1], the target named is T1, murine FcγRI (murine, UniProt P26151 25-297).
T1 construct: also called FcγRIA; CD64
T1 sequence (looked up): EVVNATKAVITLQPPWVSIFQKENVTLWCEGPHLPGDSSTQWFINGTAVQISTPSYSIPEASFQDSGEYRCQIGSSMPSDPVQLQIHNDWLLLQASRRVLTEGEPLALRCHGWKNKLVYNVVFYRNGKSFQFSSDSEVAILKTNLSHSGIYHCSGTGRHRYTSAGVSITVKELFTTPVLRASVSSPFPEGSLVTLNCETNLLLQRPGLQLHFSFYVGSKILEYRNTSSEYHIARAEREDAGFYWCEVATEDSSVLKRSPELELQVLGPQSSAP
The test is described as follows: ELISA, IgG aggregated with anti-IgG F(ab')2-HRP on coated FcγR. The protocol: (§1) The binding of the 8-18C5-WT and 8-18C5-Del antibodies to human or murine FcγRs was measured by ELISA after incubation, with the F(ab′)2 of goat anti-human IgG HRP for 2 h at room temperature (at a final concentration of 0.5 μg/ml for each molecule) with gentle stirring. The IgGs aggregated to the F(ab′)2 were then incubated with gentle agitation for 1 h at 30° C. on the Maxisorp or NiNTA immunoplates previously coated with the FcγR and saturated with PBS-BSA 4%.

Test [2] concerns the target T2, murine FcγRIII (murine, UniProt P08508 31-215).
T2 sequence (looked up): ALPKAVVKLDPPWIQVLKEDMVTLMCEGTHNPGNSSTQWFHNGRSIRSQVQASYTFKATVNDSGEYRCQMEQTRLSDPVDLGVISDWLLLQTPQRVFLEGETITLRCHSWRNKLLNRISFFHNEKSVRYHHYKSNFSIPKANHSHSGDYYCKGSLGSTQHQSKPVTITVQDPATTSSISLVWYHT
The description is as above. The protocol:
as §1

Test [3] addresses T3, murine FcγRIV (murine, UniProt A0A0B4J1G0 21-203).
T3 sequence: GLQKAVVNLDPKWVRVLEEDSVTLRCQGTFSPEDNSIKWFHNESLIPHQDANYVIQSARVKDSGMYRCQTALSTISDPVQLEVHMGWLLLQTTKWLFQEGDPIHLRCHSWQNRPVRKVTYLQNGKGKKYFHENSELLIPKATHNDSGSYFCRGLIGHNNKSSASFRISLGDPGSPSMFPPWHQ
The test is described as above. How it is done: as §1

Test [4] has as its target T4, murine FcγRIIB (murine, UniProt P08101 30-207, limits assumed).
T4 sequence (looked up): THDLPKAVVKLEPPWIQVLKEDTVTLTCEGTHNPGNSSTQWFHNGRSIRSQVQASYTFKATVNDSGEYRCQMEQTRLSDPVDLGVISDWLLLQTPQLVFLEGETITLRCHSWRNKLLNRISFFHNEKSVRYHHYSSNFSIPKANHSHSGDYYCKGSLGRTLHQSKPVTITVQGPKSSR
The test is described as above. The protocol:
as §1

The target in test [5] is T5, recombinant human MOG protein (human, UniProt Q16653 30-154, limits assumed).
T5 construct: Bought recombinant protein; also called HMOG
T5 sequence (looked up): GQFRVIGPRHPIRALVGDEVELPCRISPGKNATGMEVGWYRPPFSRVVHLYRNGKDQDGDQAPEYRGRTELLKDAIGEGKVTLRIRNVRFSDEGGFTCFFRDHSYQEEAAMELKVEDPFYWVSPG
Kind of test: phage-scFv ELISA on coated recombinant human MOG (0.5 µg/well), anti-M13 HRP, OD450 over BSA background. How it is done:
(§2) The binding characteristics of the scFvs expressed on the surface of the phages isolated during the screening were determined using an ELISA assay using the recombinant MOG protein (R&D system). Along with the selected clones, phage-scFv-8-18C5 is expressed to serve as a positive control for ELISA. Briefly, phage-scFv were produced in the form of clones isolated on a 96-well plate in 800 μl of 2YT/ampicillin/glucose cultures infected with the helper phage M13K07 (as described previously). The phages produced overnight at 26° C. were then recovered in the supernatants after 30 minutes of centrifugation at 3000 g. These supernatants were directly diluted 1/2 in PBS/4% BSA/0.1% Tween 20 and tested on Maxisorp immunoplates previously coated with 0.5 μg of human or murine MOG or PBS (background control (bdf) in BSA)/well and blocked with 4% BSA in PBS. After incubation for 2 hours at 37° C., the wells were washed 3 times with PBS/0.1% Tween-20 and bound phages-scfv were detected with anti-M13 HRP antibody (GE Healthcare). The plate is read at 450 nm (OD) on a plate reader (TECAN). The results are expressed as a ratio: OD on target/OD bdf (OD on an uncoated plate saturated with BSA) and the ratios are compared with that obtained for the positive control.
On the technique in general: An ELISA detects its analyte on a solid surface through an enzyme-linked reagent.

For test [6], the target named is T6, recombinant murine MOG protein (murine, UniProt Q61885 29-156, limits assumed).
T6 construct: Bought recombinant protein; also called MMOG
T6 sequence (looked up): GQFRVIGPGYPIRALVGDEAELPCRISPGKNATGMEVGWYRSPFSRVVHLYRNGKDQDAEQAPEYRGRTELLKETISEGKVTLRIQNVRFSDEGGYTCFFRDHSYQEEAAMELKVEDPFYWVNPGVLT
The test is described as follows: phage-scFv ELISA on coated recombinant murine MOG (0.5 µg/well), anti-M13 HRP, OD450 over BSA background. How it is done: as §2

The record followed here is patent US20210238281A1 (INSTITUT NATIONAL DE LA SANTE ET DE LA RECHERCHE MEDICALE …, published 2021).

B1: recombinant murine monoclonal antibody 8-18C5 (8-18C5-WT) (antibody, mouse IgG1, kappa)
heavy: EVKLHESGAGLVKPGASVEISCKATGYTFSSFWIEWVKQRPGHGLEWIGEILPGRGRTNYNEKFKGKATFTAETSSNTAYMQLSSLTSEDSAVYYCATGNTMVNMPYWGQGTTVTVSSAKTTPPSVYPLAPGSAAQTNSMVTLGCLVKGYFPEPVTVTWNSGSLSSGVHTFPAVLESDLYTLSSSVTVPSSPRPSETVTCNVAHPASSTKVDKKIVPRDCGCKPCICTVPEVSSVFIFPPKPKDVLTITLTPKVTCVVVDISKDDPEVQFSWFVDDVEVHTAQTQPREEQFNSTFRSVSELPIMHQDWLNGKEFKCRVNSAAFPAPIEKTISKTKGRPKAPQVYTIPPPKEQMAKDKVSLTCMITDFFPEDITVEWQWNGQPAENYKNTQPIMNTNGSYFVYSKLNVQKSNWEAGNTFTCSVLHEGLHNHHTEKSLSHSPGK
light: DIELTQSPSSLAVSAGEKVTMSCKSSQSLLNSGNQKNYLAWYQQKPGLPPKLLIYGASTRESGVPDRFTGSGSGTDFTLTISSVQAEDLAVYYCQNDHSYPLTFGAGTKLEIKRADAAPTVSIFPPSSEQLTSGGASVVCFLNNFYPKDINVKWKIDGSERQNGVLNSWTDQDSKDSTYSMSSTLTLTKDEYERHNSYTCEATHKTSTSPIVKSFNRNEC
notes: Murine IgG1 (consensus IGHG1*01 constant domain) produced in HEK or YB2/0 cells; also called mAb 8-18C5; YB2
Consider B1, for which the binding result in test [1] is reported as “no binding (tested: 0.5 µg/ml)”; in test [2] it was “binds”; in test [3], “no binding (tested: 0.5 µg/ml)”; in test [4], “binds”.

B2: 8-18C5-Del variant of the recombinant murine antibody 8-18C5 (antibody, mouse IgG1, kappa)
heavy: EVKLHESGAGLVKPGASVEISCKATGYTFSSFWIEWVKQRPGHGLEWIGEILPGRGRTNYNEKFKGKATFTAETSSNTAYMQLSSLTSEDSAVYYCATGNTMVNMPYWGQGTTVTVSSAKTTPPSVYPLAPGSAAQTNSMVTLGCLVKGYFPEPVTVTWNSGSLSSGVHTFPAVLESDLYTLSSSVTVPSSPRPSETVTCNVAHPASSTKVDKKIVPRDCGCKPCICTVPEVSSVFIFPPKPKDVLTITLTPKVTCVVVDISKDDPEVQFSWFVDDVEVHTAQTQPREQFNSTFRSVSELPIMHQDWLNGKEFKCRVNSAAFPAPIEKTISKTKGRPKAPQVYTIPPPKEQMAKDKVSLTCMITDFFPEDITVEWQWNGQPAENYKNTQPIMNTNGSYFVYSKLNVQKSNWEAGNTFTCSVLHEGLHNHHTEKSLSHSPGK
light: B1 light
modifications: Fc N-glycan highly sialylated (antibody produced in YB2/0 cells); the letters do not carry it.
notes: Murine IgG1, produced in YB2/0 cells; also called m8-18C5-Del
Turning to B2, the binding result in test [1], in test [2], in test [3] and in test [4] was “no binding (tested: 0.5 µg/ml)” in each case.

B3: anti-MOG MO3I-34 antibody (scFv, V domains shown)
VH: EVQLVQSGAEVKKPGASVKVSCKASGYTFTSYGISWVRQAPGQGLEWMGWISAYNGNTNYAQKLQGRVTMTTDTSTSTAYMELRSLRSDDTAVYYCARNMGCSSTSCFVSWFDPWGQGTLVTVSS
VL: QSVLTQPPSVSAAPGQKVTISCSGSRSNIGSNYVSWYQQLPGTAPKLLIYDNTRRPSGIPDRFYGSKSGTSATLDITGLQTGDEADYHCATWDSSLSALLFGGGTKVTVL
Consider B3, for which the “ratio OD on target/OD bdf” value in test [5] came out at 2.14 ratio; in test [6] it was 2.45 ratio.
